Tests used:
[1] = biological target: pre-existing anti-scFv903 antibodies in human serum H21 (human); experiment: competition ADA bridging ELISA
[2] = biological target: pre-existing anti-scFv903 antibodies in human serum H3 (human); experiment: competition ADA bridging ELISA
[3] = biological target: pre-existing anti-scFv903 antibodies in human serum H49 (human); experiment: competition ADA bridging ELISA
[4] = biological target: pre-existing anti-scFv903 antibodies in human serum H50 (human); experiment: competition ADA bridging ELISA
[5] = biological target: pre-existing anti-scFv903 antibodies in human serum H53 (human); experiment: competition ADA bridging ELISA
[6] = biological target: pre-existing anti-scFv903 antibodies in human serum H56 (human); experiment: competition ADA bridging ELISA
[7] = biological target: pre-existing anti-scFv903 antibodies in human serum H64 (human); experiment: competition ADA bridging ELISA
[8] = biological target: pre-existing anti-scFv903 antibodies in human serum H80 (human); experiment: competition ADA bridging ELISA
[9] = biological target: pre-existing anti-scFv903 antibodies in human serum H105 (human); experiment: competition ADA bridging ELISA, 100 mcg/ml competitor
[10] = biological target: pre-existing anti-scFv903 antibodies in human serum H115 (human); experiment: as above
[11] = biological target: pre-existing anti-scFv903 antibodies in human serum H116 (human); experiment: as above
[12] = biological target: pre-existing anti-scFv903 antibodies in human serum H125 (human); experiment: as above
[13] = biological target: pre-existing anti-scFv903 antibodies in human serum H135 (human); experiment: as above
[14] = biological target: pre-existing anti-scFv903 antibodies in human serum H14 (human); experiment: as above
[15] = biological target: pre-existing anti-scFv903 antibodies in human serum H15 (human); experiment: as above
[16] = biological target: pre-existing anti-scFv903 antibodies in human serum H19 (human); experiment: as above
[17] = biological target: pre-existing anti-scFv903 antibodies in human serum H20 (human); experiment: as above
[18] = biological target: pre-existing anti-scFv903 antibodies in human serum H21 (human); experiment: as above
[19] = biological target: pre-existing anti-scFv903 antibodies in human serum H26 (human); experiment: as above
[20] = biological target: pre-existing anti-scFv903 antibodies in human serum H29 (human); experiment: as above
[21] = biological target: pre-existing anti-scFv903 antibodies in human serum H3 (human); experiment: as above
[22] = biological target: pre-existing anti-scFv903 antibodies in human serum H40 (human); experiment: as above
[23] = biological target: pre-existing anti-scFv903 antibodies in human serum H46 (human); experiment: as above
[24] = biological target: pre-existing anti-scFv903 antibodies in human serum H49 (human); experiment: as above
[25] = biological target: pre-existing anti-scFv903 antibodies in human serum H50 (human); experiment: as above
[26] = biological target: pre-existing anti-scFv903 antibodies in human serum H53 (human); experiment: as above
[27] = biological target: pre-existing anti-scFv903 antibodies in human serum H54 (human); experiment: as above
[28] = biological target: pre-existing anti-scFv903 antibodies in human serum H55 (human); experiment: as above
[29] = biological target: pre-existing anti-scFv903 antibodies in human serum H56 (human); experiment: as above
[30] = biological target: pre-existing anti-scFv903 antibodies in human serum H59 (human); experiment: as above
[31] = biological target: pre-existing anti-scFv903 antibodies in human serum H60 (human); experiment: as above
[32] = biological target: pre-existing anti-scFv903 antibodies in human serum H63 (human); experiment: as above
[33] = biological target: pre-existing anti-scFv903 antibodies in human serum H64 (human); experiment: as above
[34] = biological target: pre-existing anti-scFv903 antibodies in human serum H66 (human); experiment: as above
[35] = biological target: pre-existing anti-scFv903 antibodies in human serum H69 (human); experiment: as above
[36] = biological target: pre-existing anti-scFv903 antibodies in human serum H76 (human); experiment: as above
[37] = biological target: pre-existing anti-scFv903 antibodies in human serum H79 (human); experiment: as above
[38] = biological target: pre-existing anti-scFv903 antibodies in human serum H8 (human); experiment: as above
[39] = biological target: pre-existing anti-scFv903 antibodies in human serum H80 (human); experiment: as above
[40] = biological target: pre-existing anti-scFv903 antibodies in human serum H81 (human); experiment: as above
[41] = biological target: pre-existing anti-scFv903 antibodies in human serum H86 (human); experiment: as above
[42] = biological target: pre-existing anti-scFv903 antibodies in human serum H96 (human); experiment: as above

B1: scFv 791 (scFv)
scFv: MEIVMTQSPSTLSASLGDRVIITCQSSQSVYGNIWMAWYQQKSGKAPKLLIYQASKLASGVPSRFSGSGSGAEFSLTISSLQPDDFATYYCQGNFNTGDRYAFGQGTKLTVLGGGGGSGGGGSGGGGSGGGGSEVQLVESGGGLVQPGGSLRLSCTASGFTISRSYWICWVRQAPGKGLEWVACIYGDNDITPLYANWAKGRFPVSTDTSKNTVYLQMNSLRAEDTAVYYCARLGYADYAYDLWGQGTLVTVSS
[1]
  signal change in competition ELISA (% reduction in OD): -85%
[2]
  signal change in competition ELISA (% reduction in OD): -85%
[3]
  signal change in competition ELISA (% reduction in OD): -81%
[4]
  signal change in competition ELISA (% reduction in OD): -89%
[5]
  signal change in competition ELISA (% reduction in OD): -35%
[6]
  signal change in competition ELISA (% reduction in OD): -15%
[7]
  signal change in competition ELISA (% reduction in OD): -96%
[8]
  signal change in competition ELISA (% reduction in OD): -85%
[9]
  % reduction in OD: -96.9%
[10]
  % reduction in OD: -94.8%
[11]
  % reduction in OD: -97.2%
[12]
  % reduction in OD: -97.4%
[13]
  % reduction in OD: -95.2%
[14]
  % reduction in OD: -96.5%
[15]
  % reduction in OD: -90%
[16]
  % reduction in OD: -84.3%
[17]
  % reduction in OD: -96.1%
[18]
  % reduction in OD: -85.3%
[19]
  % reduction in OD: -96.8%
[20]
  % reduction in OD: -78.7%
[21]
  % reduction in OD: -85%
[22]
  % reduction in OD: -94.6%
[23]
  % reduction in OD: -77.1%
[24]
  % reduction in OD: -81.2%
[25]
  % reduction in OD: -88.5%
[26]
  % reduction in OD: -34.6%
[27]
  % reduction in OD: -91.7%
[28]
  % reduction in OD: -96%
[29]
  % reduction in OD: -15.1%
[30]
  % reduction in OD: -96.4%
[31]
  % reduction in OD: -94.8%
[32]
  % reduction in OD: -19.7%
[33]
  % reduction in OD: -95.5%
[34]
  % reduction in OD: -96.4%
[35]
  % reduction in OD: -74.7%
[36]
  % reduction in OD: -48.6%
[37]
  % reduction in OD: -96.8%
[38]
  % reduction in OD: -90.7%
[39]
  % reduction in OD: -85.3%
[40]
  % reduction in OD: -94.4%
[41]
  % reduction in OD: -86.7%
[42]
  % reduction in OD: -78.5%

— US20210214461A1
